{"source": "paper PMC7713262", "about": "“Synthesis of high-titer alka(e)nes in Yarrowia lipolytica is enabled by a discovered mechanism” (Nature Communications, 2020)", "key": {"[1]": {"substrate": "CCCCCCCCCCCCCCCCCC(=O)SCCNC(=O)CCNC(=O)[C@H](O)C(C)(C)COP(=O)(O)OP(=O)(O)OC[C@H]1O[C@@H](n2cnc3c(N)ncnc32)[C@H](O)[C@@H]1OP(=O)(O)O", "assay": "heptadecane formation by GC-FID; Eadie-Hofstee plot", "format": "biochemical, Chlorella variabilis", "conditions": "blue light, 20 h, 25 °C, 50 mM Tris-HCl pH 8.5, 30 vol% DMSO, lithium salt, kcat unit doubtful (Vmax 3.22 μM/h)"}, "[2]": {"substrate": "CCCCCCCCCCCCCCCCCC(=O)O", "assay": "heptadecane formation by GC-FID; Eadie-Hofstee plot", "format": "biochemical, Chlorella variabilis", "conditions": "blue light, 20 h, 25 °C, 50 mM Tris-HCl pH 8.5, 30 vol% DMSO, lithium salt, kcat unit doubtful (Vmax 2.83 μM/h)"}}, "data": [{"protein": "CvFAP (fatty acid photodecarboxylase) (Chlorella variabilis) (protein, codon-optimised gene, C-terminal 6xHis tag (3'-terminus), pET28, E. coli BL21(DE3), Ni-NTA purified) SAVEDIRKVLSDSSSPVAGQKYDYILVGGGTAACVLANRLSADGSKRVLVLEAGPDNTSRDVKIPAAITRLFRSPLDWNLFSELQEQLAERQIYMARGRLLGGSSATNATLYHRGAAGDYDAWGVEGWSSEDVLSWFVQAETNADFGPGAYHGSGGPMRVENPRYTNKQLHTAFFKAAEEVGLTPNSDFNDWSHDHAGYGTFQVMQDKGTRADMYRQYLKPVLGRRNLQVLTGAAVTKVNIDQAAGKAQALGVEFSTDGPTGERLSAELAPGGEVIMCAGAVHTPFLLKHSGVGPSAELKEFGIPVVSNLAGVGQNLQDQPACLTAAPVKEKYDGIAISDHIYNEKGQIRKRAIASYLLGGRGGLTSTGCDRGAFVRTAGQALPDLQVRFVPGMALDPDGVSTYVRFAKFQSQGLKWPSGITMQLIACRPQSTGSVGLKSADPFAPPKLSPGYLTDKDGADLATLRKGIHWARDVARSSALSEYLDGELFPGSGVVSDDQIDEYIRRSIHSSNAITGTCKMGNAGDSSSVVDNQLRVHGVEGLRVVDASVVPKIPGGQTGAPVVMIAERAAALLTGKATIGASAAAPATVAA", "values": [{"measurement": "Km", "setting": "[1]", "value": 75.30, "unit": "µM"}, {"measurement": "Km", "setting": "[2]", "value": 108.31, "unit": "µM"}, {"measurement": "kcat", "setting": "[2]", "value": 979.62, "unit": "s⁻¹"}]}]}
